{"source": "patent US20230106131A1", "about": "(OHIO STATE INNOVATION FOUNDATION, published 2023)", "binders": {"B1": {"name": "peptide 6, Ac-LTFCHYWCQLTS-miniPEG-K(FITC)-NH2, stapled (peptide)", "peptide": "Ac-LTFCHYWCQLTS-{AEEA-K(FITC)-NH2}", "modifications": "bridge 4-8; not fully specified (bridges); printed as Ac-LTFCHYWCQLTS-miniPEG-K(FITC)-NH", "notes": "No CPP"}, "B2": {"name": "peptide 7, Ac-LTFCHYWCQLTS-miniPEG-K(FITC)-NH2, stapled with BBA-CPP9 (peptide)", "peptide 1": "LTFCHYWCQLTS", "peptide 2": "FXRRRRQ", "modifications": "head-to-tail cyclic; D-Phe at 1, L-2-naphthylalanine at 2, D-Arg at 4 and 6; miniPEG-Lys linker, with the Lys side chain acylated by the BBA staple; N-terminal acetyl; Cys 4 and Cys 8 joined by a 3,5-dimethylbenzoyl (BBA) staple that carries CPP9; C-terminal miniPEG-Lys(FITC) amide"}, "B3": {"name": "peptide 11, Ac-ETFCHYWCQLTS-miniPEG-K(FITC)-NH2, stapled with BBA-CPP9 (peptide)", "peptide 1": "ETFCHYWCQLTS", "peptide 2": "FXRRRRQ", "modifications": "head-to-tail cyclic; D-Phe at 1, L-2-naphthylalanine at 2, D-Arg at 4 and 6; miniPEG-Lys linker, with the Lys side chain acylated by the BBA staple; N-terminal acetyl; Cys 4 and Cys 8 joined by a 3,5-dimethylbenzoyl (BBA) staple that carries CPP9; C-terminal miniPEG-Lys(FITC) amide"}, "B4": {"name": "peptide 13, Ac-EETFCHYWCQLTS-miniPEG-K(FITC)-NH2, stapled with BBA-CPP9 (peptide)", "peptide 1": "EETFCHYWCQLTS", "peptide 2": "FXRRRRQ", "modifications": "head-to-tail cyclic; D-Phe at 1, L-2-naphthylalanine at 2, D-Arg at 4 and 6; miniPEG-Lys linker, with the Lys side chain acylated by the BBA staple; N-terminal acetyl; Cys 5 and Cys 9 joined by a 3,5-dimethylbenzoyl (BBA) staple that carries CPP9; C-terminal miniPEG-Lys(FITC) amide"}, "B5": {"name": "peptide 2 (PDI with homocysteine at Glu-4 and Ala-8, stapled with DCA, FITC-labeled) (peptide)", "peptide": "LTFXHYWXQLTS", "modifications": "not fully specified; homocysteine at 4 and 8, joined by a 1,3-dichloroacetone (DCA) staple; FITC label; the rest of the structure only in drawing CHEM-US-00019", "notes": "X stands for homocysteine; also called 3-1-1-DCA"}, "B6": {"name": "peptide 3 (PDI with homocysteine at His-5 and Gln-9, stapled with DCA, FITC-labeled) (peptide)", "peptide": "LTFEXYWAXLTS", "modifications": "not fully specified; homocysteine at 5 and 9, joined by a 1,3-dichloroacetone (DCA) staple; FITC label; the rest of the structure only in drawing CHEM-US-00020", "notes": "X stands for homocysteine"}, "B7": {"name": "peptide 4 (DCA-stapled peptide 2 conjugated to CPP9 through an oxime, stereoisomer 1, unlabeled) (peptide)", "peptide 1": "LTF[hCys]HYW[hCys]QLTS", "peptide 2": "[dF][2Nal]R[dR]R[dR]Q([AEEA-Lys-aminooxyacetyl])", "modifications": "thioether (positions not given here) via CH2COCH2; not fully specified (bridges); also: oxime stereoisomer 1 (peak 1), Z/E not determined, further groups not given here, head-to-tail to a chain's N/C-terminus", "notes": "Peptides 4 and 5 are the two isomers separated by HPLC; also called 3-1-1-DCA-CP9 peak1"}, "B8": {"name": "peptide 5 (DCA-stapled peptide 2 conjugated to CPP9 through an oxime, stereoisomer 2, unlabeled) (peptide)", "peptide 1": "LTF[hCys]HYW[hCys]QLTS", "peptide 2": "[dF][2Nal]R[dR]R[dR]Q([AEEA-Lys-aminooxyacetyl])", "modifications": "thioether (positions not given here) via CH2COCH2; not fully specified (bridges); also: oxime stereoisomer 2 (peak 2), Z/E not determined, further groups not given here, head-to-tail to a chain's N/C-terminus", "notes": "also called 3-1-1-DCA-CP9 peak2"}}, "key": {"[1]": {"molecular_target": "T1, GST-MDM2 (human MDM2 residues 17-125) (human, UniProt Q00987 17-125)", "T1 construct": "range 17-125; No removal of GST is reported; not shown: glutathione S-transferase (GST) tag encoded by vector pGEX-6P-2", "test": "direct binding of the FITC-labeled peptide to MDM2"}, "[2]": {"molecular_target": "T1, GST-MDM2 (human MDM2 residues 17-125)", "test": "ratio of KD values of FITC-labeled peptides"}, "[3]": {"molecular_target": "T1, GST-MDM2 (human MDM2 residues 17-125)", "test": "direct binding of the FITC-labeled peptide to MDM2 (the text differs from Table 7)"}, "[4]": {"molecular_target": "T1, GST-MDM2 (human MDM2 residues 17-125)", "test": "direct binding of the FITC-labeled peptide to MDM2", "remark": "listed apart in the source"}, "[5]": {"molecular_target": "T1, GST-MDM2 (human MDM2 residues 17-125)", "test": "fluorescence anisotropy competition with FITC-labeled peptide 1 for MDM2"}}, "note": "Numbered stars: 1 amine (or outer) side, 2 acyl side, 3 side chain; on linkers, the order of the positions; unused ones are H or OH. Bridge positions count the residues as written; N and C are the ends. Square brackets hold non-standard residues; d marks the D form. Side chains are listed from the residue outwards. Ends that are not written are not given here. * marks the point of attachment. aminooxyacetyl = aminooxyacetyl (from Boc-aminooxyacetyl acylation of Lys side-chain amine), NOCC(=O)*; 2Nal = N[C@@H](Cc1ccc2ccccc2c1)C(=O)O; mXylylene = c1cc(C[*:1])cc(C[*:2])c1; CH2COCH2 = O=C(C[*:1])C[*:2]; hCys = N[C@@H](CCS)C(=O)O; AEEA = NCCOCCOCC(=O)O"}
{"binder": "B1", "values": [{"measurement": "Kd", "setting": "[1]", "result": 190, "unit": "nM"}, {"measurement": "fold decrease of MDM2-binding affinity against peptide 1", "setting": "[2]", "result": "~2.5", "unit": "fold"}]}
{"binder": "Ac-ETFCHYWCQLTS-{AEEA-K(FITC)-NH2} (linker 4-8 via mXylylene, No CPP)", "note": "[peptide 10, Ac-ETFCHYWCQLTS-miniPEG-K(FITC)-NH2, xylene-stapled]", "values": [{"measurement": "Kd", "setting": "[1]", "result": 36, "unit": "nM"}, {"measurement": "fold improvement of binding affinity against peptide 6", "setting": "[2]", "result": 5, "unit": "fold"}]}
{"binder": "B2", "values": [{"measurement": "Kd", "setting": "[1]", "result": "~300", "unit": "nM"}, {"measurement": "fold decrease of MDM2 binding affinity against peptide 6", "setting": "[2]", "result": "~2", "unit": "fold"}]}
{"binder": "B3", "values": [{"measurement": "Kd", "setting": "[1]", "result": 225, "unit": "nM"}, {"measurement": "fold decrease of MDM2 binding affinity against peptide 10", "setting": "[2]", "result": 6, "unit": "fold"}]}
{"binder": "Ac-LTF[hCys]HYW[hCys]QLTS-{AEEA-K(FITC)-NH2} (bridge 4-8; not fully specified (bridges), No CPP)", "note": "[peptide 8, Ac-LTFhCHYWhCQLTS-miniPEG-K(FITC)-NH2, stapled]", "values": [{"measurement": "Kd", "setting": "[1]", "result": 15, "unit": "nM"}, {"measurement": "fold improvement of MDM2 binding affinity against peptide 1", "setting": "[2]", "result": 5, "unit": "fold"}, {"measurement": "Kd", "setting": "[3]", "result": 14, "unit": "nM"}]}
{"binder": "Ac-EETFCHYWCQLTS-{AEEA-K(FITC)-NH2} (linker 5-9 via mXylylene, No CPP)", "note": "[peptide 12, Ac-EETFCHYWCQLTS-miniPEG-K(FITC)-NH2, xylene-stapled]", "values": [{"measurement": "Kd", "setting": "[1]", "result": 187, "unit": "nM"}]}
{"binder": "B4", "values": [{"measurement": "Kd", "setting": "[1]", "result": 365, "unit": "nM"}]}
{"binder": "B5", "values": [{"measurement": "Kd", "setting": "[4]", "result": 144, "unit": "nM"}]}
{"binder": "B6", "values": [{"measurement": "Kd", "setting": "[4]", "result": 171, "unit": "nM"}]}
{"binder": "B7", "values": [{"measurement": "IC50", "setting": "[5]", "result": 220, "unit": "nM"}]}
{"binder": "B8", "values": [{"measurement": "IC50", "setting": "[5]", "result": 201, "unit": "nM"}]}
